B1: anti-DLL3 antibody 6D8 (IgG) (antibody, V domains shown)
VH: QITLKESGPTLVKPTQTLTLTCTFSGFSLSTRGVGVGWIRQPPGKALEWLALIYWNDDKRYSPSLQTRLTITKDTPKNQVVLTMTNMDPVDTATYYCARSNWGNWYFALWGRGTLVTVSS
VL: EIVLTQSPATLSLSPGERATLSCRASQSVSSYLAWYQQKPGQAPRLLIYDAFYRATGIPARFSGSGSGTDFTLTISSLEPEDFAVYYCQHRSNWPITFGQGTRLEIK
notes: Full-length monoclonal antibody (IgG)
B2: anti-DLL3 antibody 26C8 (IgG) (antibody, V domains shown)
VH: QVQLQESGPGLVKPSETLSLTCTVSDNSISNYYWSWIRQPPGKGLEWIAYIYYSGTTNYNPSLKSRVTISLDTSKNQFSLQLSSVTAADAAVYYCARVFHWGFAFDIWGQGTMVTVSS
VL: EIVLTQSPGTLSLSPGERATLSCRASQRVSNTYLAWYQQNPGQAPRLLIYGASSRATGIPDRFSGSGSGTDFTLTISRLEPEDFAVYYCQQYGTSPLTFGGGTKVEIK
notes: as for B1

Tests used:
[1] = biological target: T1, DSL-EGF6; assay: flow cytometry on CHO cells with the HA tagged DLL3 construct, PE anti-mouse IgG
T1 construct: also called Human DLL3 DSL-EGF6, N-terminal HA tag, on CHO cells
T1 single chain: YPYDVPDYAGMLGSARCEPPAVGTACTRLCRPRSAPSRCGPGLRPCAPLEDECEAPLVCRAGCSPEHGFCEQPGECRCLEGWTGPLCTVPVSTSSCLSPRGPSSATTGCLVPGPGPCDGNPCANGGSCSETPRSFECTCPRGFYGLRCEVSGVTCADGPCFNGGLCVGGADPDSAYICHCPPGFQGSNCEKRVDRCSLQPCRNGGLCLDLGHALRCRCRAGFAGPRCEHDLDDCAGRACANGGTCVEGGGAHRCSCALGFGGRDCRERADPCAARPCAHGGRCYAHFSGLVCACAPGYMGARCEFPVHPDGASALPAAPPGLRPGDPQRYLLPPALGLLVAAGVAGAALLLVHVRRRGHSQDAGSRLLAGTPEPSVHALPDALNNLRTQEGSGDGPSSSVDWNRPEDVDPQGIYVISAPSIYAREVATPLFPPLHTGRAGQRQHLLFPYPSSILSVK
Method: (§1) The samples were analyzed by flow cytometry. […] Signals from the PE channel are shown on the x-axis and counts are shown on the y-axis.

[2] = biological target: T2, EGF6; assay: as above
T2 construct: also called Human DLL3 EGF6, N-terminal HA tag, on CHO cells
T2 single chain: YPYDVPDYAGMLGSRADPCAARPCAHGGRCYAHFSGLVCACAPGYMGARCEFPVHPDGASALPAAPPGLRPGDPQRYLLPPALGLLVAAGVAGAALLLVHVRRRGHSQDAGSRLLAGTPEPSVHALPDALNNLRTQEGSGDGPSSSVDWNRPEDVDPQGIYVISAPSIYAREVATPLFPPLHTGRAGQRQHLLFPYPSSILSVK
Method: as §1

[3] = biological target: T3, EGF5-EGF6; assay: as above
T3 construct: also called Human DLL3 EGF5-EGF6, N-terminal HA tag, on CHO cells
T3 single chain: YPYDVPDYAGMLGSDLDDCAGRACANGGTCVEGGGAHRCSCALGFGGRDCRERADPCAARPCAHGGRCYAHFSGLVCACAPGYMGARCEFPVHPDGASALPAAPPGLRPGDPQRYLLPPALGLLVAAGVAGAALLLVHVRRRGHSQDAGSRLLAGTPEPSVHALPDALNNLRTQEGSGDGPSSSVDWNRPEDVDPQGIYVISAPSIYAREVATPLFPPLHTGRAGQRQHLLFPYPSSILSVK
Method: as §1

[4] = biological target: T4, EGF4-EGF6; assay: as above
T4 construct: also called Human DLL3 EGF4-EGF6, N-terminal HA tag, on CHO cells
T4 single chain: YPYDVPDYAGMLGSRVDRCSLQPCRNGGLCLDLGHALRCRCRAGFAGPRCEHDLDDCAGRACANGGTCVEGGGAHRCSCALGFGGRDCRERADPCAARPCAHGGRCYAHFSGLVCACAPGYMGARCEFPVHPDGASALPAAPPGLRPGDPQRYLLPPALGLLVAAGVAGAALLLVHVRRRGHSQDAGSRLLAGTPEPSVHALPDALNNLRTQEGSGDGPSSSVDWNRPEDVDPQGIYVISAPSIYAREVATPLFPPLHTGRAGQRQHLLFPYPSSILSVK
Method: as §1

[5] = biological target: T5, EGF3-EGF6; assay: as above
T5 construct: also called Human DLL3 EGF3-EGF6, N-terminal HA tag, on CHO cells
T5 single chain: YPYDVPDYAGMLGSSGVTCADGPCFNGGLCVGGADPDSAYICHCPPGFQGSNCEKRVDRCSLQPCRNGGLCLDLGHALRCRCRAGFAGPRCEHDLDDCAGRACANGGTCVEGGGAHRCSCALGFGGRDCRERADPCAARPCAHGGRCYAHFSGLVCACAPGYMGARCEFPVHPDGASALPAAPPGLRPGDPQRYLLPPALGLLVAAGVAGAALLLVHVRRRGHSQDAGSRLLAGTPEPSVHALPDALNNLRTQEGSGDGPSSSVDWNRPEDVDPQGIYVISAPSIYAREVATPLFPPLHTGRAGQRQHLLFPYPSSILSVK
Method: as §1

[6] = biological target: T6, EGF1-EGF6; assay: as above
T6 construct: also called Human DLL3 EGF1-EGF6, N-terminal HA tag, on CHO cells
T6 single chain: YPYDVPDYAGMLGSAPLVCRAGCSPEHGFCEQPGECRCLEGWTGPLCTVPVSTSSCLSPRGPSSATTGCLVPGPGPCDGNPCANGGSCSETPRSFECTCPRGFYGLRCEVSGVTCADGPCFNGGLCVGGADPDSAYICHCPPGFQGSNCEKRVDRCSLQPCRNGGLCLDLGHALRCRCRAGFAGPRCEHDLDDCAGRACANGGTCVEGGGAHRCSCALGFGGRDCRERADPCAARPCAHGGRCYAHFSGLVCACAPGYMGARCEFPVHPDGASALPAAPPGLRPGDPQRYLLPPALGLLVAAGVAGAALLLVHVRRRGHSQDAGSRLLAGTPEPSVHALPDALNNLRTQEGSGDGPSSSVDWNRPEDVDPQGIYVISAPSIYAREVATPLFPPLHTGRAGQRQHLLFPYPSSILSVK
Method: as §1

[7] = biological target: T7, EGF2-EGF6; assay: as above
T7 construct: also called Human DLL3 EGF2-EGF6, N-terminal HA tag, on CHO cells
T7 single chain: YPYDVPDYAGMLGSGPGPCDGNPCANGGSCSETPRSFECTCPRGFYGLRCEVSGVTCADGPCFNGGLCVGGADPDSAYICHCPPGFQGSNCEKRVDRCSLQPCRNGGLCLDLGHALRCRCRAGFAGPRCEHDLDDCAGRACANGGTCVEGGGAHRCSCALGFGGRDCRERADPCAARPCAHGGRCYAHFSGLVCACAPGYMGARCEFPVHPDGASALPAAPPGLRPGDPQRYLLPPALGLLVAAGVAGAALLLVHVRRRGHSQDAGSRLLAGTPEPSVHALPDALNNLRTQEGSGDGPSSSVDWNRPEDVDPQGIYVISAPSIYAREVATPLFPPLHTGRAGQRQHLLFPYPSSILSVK
Method: as §1

[8] = biological target: T8, human DLL3 extracellular domain (ECD) with C-terminal 8xHis tag and Avi tag (human, UniProt Q9NYJ7 27-492); assay: SPR (Biacore), 37 C; IgG captured on chip, human DLL3 ECD in solution; 1:1 Langmuir fit
T8 construct: extracellular domain; Expressed in Expi293, purified by IMAC and SEC; also called huDLL3; not shown: Avi tag
T8 sequence: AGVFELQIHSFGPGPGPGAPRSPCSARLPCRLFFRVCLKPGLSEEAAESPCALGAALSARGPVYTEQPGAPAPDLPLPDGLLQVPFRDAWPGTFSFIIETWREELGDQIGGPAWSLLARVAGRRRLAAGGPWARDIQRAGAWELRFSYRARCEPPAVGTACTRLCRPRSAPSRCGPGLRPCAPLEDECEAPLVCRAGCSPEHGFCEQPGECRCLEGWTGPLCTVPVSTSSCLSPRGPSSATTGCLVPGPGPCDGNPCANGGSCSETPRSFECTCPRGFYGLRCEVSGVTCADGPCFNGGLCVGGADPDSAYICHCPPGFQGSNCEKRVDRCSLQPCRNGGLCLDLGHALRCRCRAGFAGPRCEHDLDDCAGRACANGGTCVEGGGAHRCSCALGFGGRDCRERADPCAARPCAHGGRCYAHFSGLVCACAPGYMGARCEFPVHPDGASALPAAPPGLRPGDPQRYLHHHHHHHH

Binder	binding result [1]	binding result [2]	binding result [3]	binding result [4]	binding result [5]	binding result [6]	binding result [7]	Kd [8]
B1	binds	no binding	no binding	no binding	no binding	binds	no binding	< 1.42 nM
B2	binds	no binding	no binding	no binding	binds	binds	binds	5.54 nM

From US20230287120A1 (ALLOGENE THERAPEUTICS, published 2023)
